Reference: US6602854B1, “Branched multimeric Apo A-I agonist compounds” (priority 1997, dated 2003)
Where no end group is shown, it is not given here. [ ]: non-standard residue; d: D form. Aib = CC(C)(N)C(=O)O

How the values were obtained:
[1] = Circular dichroism: degree of helicity (free, SUVs, micelles, TFE); conditions: for He (%) free: percent helicity of free, unbound peptide; for He (%) SUVs: percent helicity of peptide-SUV complexes; for He (%) TFE: percent helicity of peptide-TFE solution; for He (%) mics: percent helicity of peptide-micelle complexes
Protocol: Far UV circular dichroism spectra were recorded between 190 and 260 nm (in 0.5 nm or 0.2 nm increments) with a AVIV62DS spectrometer (AVIV Associates, Lakewood, N.J., USA) equipped with a thermoelectric cell holder and sample changer. The instrument was calibrated with (+)-10-camphoric acid. Between one and three scans were collected for each sample, using 10 cm, 5 cm, 1 cm and 0.1 cm path length quartz Suprasil cells, respectively, for peptide concentrations of 10^−7 M to 10^−4 M. The bandwidth was fixed at 1.5 nm and the scan speed to 1 s per wavelength step. The reported data are the mean of at least 2 or 3 independent measurements.
After background substraction, spectra were converted to molar ellipticity (θ) per residue in deg. […] dmol^−1. The peptide concentration was determined by amino acid analysis and also by absorption spectrometry on a Perkin Elmer Lambda 17 UV/Visible spectrophotometer when the peptide contained a chromophore (tryptophane, dansyl, naphtylalanine).
CD spectra were obtained with free, unbound peptide (5 μM in 5 mM phosphate buffer, pH 7.4); with peptide-SUV complexes (20:1 EPC:Chol., Ri=30 and Ri=50); with peptide-micelle complexes (1-myristoyl-2-hydroxy-sn-glycero-3-phosphatidyl choline, Ri=100); and with free, unbound peptide in the presence of 2,2,2-trifluoroethanol (TFE) (5 μM peptide, 90% vol TFE).
The SUVs were obtained by dispersing the lipids (10 mM, 20:1 EPC:Chol., Avanti Polar Lipids, Ala.) in phosphate buffer (5 mM, pH 7.4) with bubbling N2 for 5 min., followed by sonication (1.5 hr.) in a bath sonicator. The homogeneity of the preparation was checked by FPLC.
The micelles were obtained by dispersing the lipid (6 mM 1-myristoyl-2-hydroxy-sn-glycero-3-phosphatidyl choline, Avanti Polar Lipids, AL) in phosphate buffer (5 mM, pH 7.4) with bubbling N2 for 5 min., followed by vortexing.
To obtain the peptide-SUV complexes, SUVs were added to the peptide (5 μM in 5 mM phosphate buffer, pH 7.4) at a phospholipid-peptide molar ratio (Ri) of 30 or 50.
To obtain the peptide-micelle complexes, micelles were added to the peptide (5 μM in 5 mM phosphate buffer, pH 7.4) at a Ri of 100.
All spectra were recorded at 37° C. The stability of peptide 4 (SEQ ID NO:4) as a function of temperature (both free in buffer and in micelles) was determined by recording spectra at a series of different temperatures.
The degree of helicity of peptide 4 (SEQ ID NO:4) as a function of concentration was also determined.
The degree of helicity of the peptides in the various conditions was determined from the mean residue ellipticity at 222 nm (Chen et al., 1974, Biochemistry 13:3350-3359) or by comparing the CD spectra obtained to reference spectra available on databases (16 helical reference spectra from Provencher & Glockner, 1981, Biochemistry 20:33-37; denatured protein reference spectra from Venyaminov et al., 1993, Anal. Biochem. 214:17-24) using the CONTIN curve-fitting algorithm version 2DP, CD-1 pack (Aug. 1982) (Provencher, 1982, Comput. Phys. Commun. 27:213-227, 229-242). Acceptable fit was determined using the statistical analysis methodology provided by the CONTIN algorithm.

[2] = HDL cholesterol in rabbits after injection of phospholipid/peptide complexes; type: in vivo, Male New Zealand White rabbits; conditions: 10 mg/kg as peptide/DPPC complexes
Protocol: Small discoidal particles consisting of phospholipid (DPPC) and peptide were prepared following the cholate dialysis method. The phospholipid was dissolved in chloroform and dried under a stream of nitrogen. The peptide was dissolved in buffer (saline) at a concentration of 1-2 mg/ml. The lipid film was redissolved in buffer containing cholate (43° C.) and the peptide solution was added at a 3:1 phospholipid/peptide weight ratio. The mixture was incubated overnight at 43° C. and then dialyzed at 43° C. (24 hr.), room temperature (24 hr.) and 4° C. (24 hr.), with three changes of buffer (large volumes) at temperature point. The complexes were filter sterilized (0.22 μm) for injection and storage at 4° C.
Male New Zealand White rabbits (2.5-3 kg) were injected intravenously with a dose of phospholipid/peptide complex (5 or 10 mg/kg bodyweight, expressed as peptide) in a single bolus injection not exceeding 10-15 ml. The animals were slightly sedated before the manipulations. Blood samples (collected on EDTA) were taken before and 5, 15, 30, 60, 240 and 1440 minutes after injection. The hematocrit (Hct) was determined for each sample. Samples were aliquoted and stored at −20° C. before analysis.
Plasma Lipids. The total plasma cholesterol, plasma triglycerides and plasma phospholipids were determined enzymatically using commercially available assays according to the manufacturer's protocols (Boehringer Mannheim, Mannheim, Germany and Biomerieux, 69280, Marcy-L'étoile, France).
Lipoprotein Profiles. The plasma lipoprotein profiles of the fractions obtained after the separation of the plasma into its lipoprotein fractions were determined by spinning in a sucrose density gradient. The fractions were collected and in each individual fraction the phospholipid and cholesterol content was measured enzymatically.

| Substance | He (%) free [1] [%] | He (%) SUVs [1] [%] | He (%) TFE [1] [%] | He (%) mics [1] [%] | Increase (%) in HDL cholesterol ([2]; 15 min) [%] | Increase (%) in HDL cholesterol ([2]; 30 min) [%] | Increase (%) in HDL cholesterol ([2]; 60 min) [%] | Increase (%) in HDL cholesterol ([2]; 240 min) [%] | % helicity in the presence of TFE [1] [%] | helical structure in the presence of lipids [1] | % Helicity Free ([1]; peptide concentration 5.0 μM, free in buffer) [%] |
| --- | --- | --- | --- | --- | --- | --- | --- | --- | --- | --- | --- |
| 41 (PVLDLWRELLNE[Aib]LEALKQKLK) [compound 41] | 53 | 85 | 69 | 73 |  |  |  |  |  |  |  |
| 105 (PAADAFREAANEAAEAAKQKAK) [compound 105] | 29 | 32 | 65 | 28 |  |  |  |  |  |  |  |
| 220 (PVLDLFRELLEELQKKLK) [compound 220] | 27 | 54 | 64 | 64 |  |  |  |  |  |  |  |
| 223 (PVLDAFRELLEALAQLKK) [compound 223] | 21 | 23 | 51 | 56 |  |  |  |  |  |  |  |
| 104 (PLLNELLEALKQKLK) [compound 104] | 21 | 29 | 55 | 49 |  |  |  |  |  |  |  |
| DWLKAFYDKVAEKLKEAF [peptide 244, reference compound] | 9 | 13 | 48 | 40 |  |  |  |  |  |  |  |
| PVLDLFRELLNELLEWLKQKLK [peptide 3] | 70 | 80 | 95 | 95 | 84 | 71 | 60 | 14.5 |  |  |  |
| 46 (PVLDLFREKLNE[Aib]LEALKQKLK) [compound 46] | 30 | 58 | 85 | 86 |  |  |  |  |  |  |  |
| 70 (PVLDEFRELLYE[Aib]LEALKQKLK) [compound 70] | 27 | 33 | 66 | 78 |  |  |  |  |  |  |  |
| 51 (PVLDLFWELLNE[Aib]LEALKQKLK) [compound 51] | 63 | 81 | 73 | 82 |  |  |  |  |  |  |  |
| 210 (PVLDLFRELLEELKQKLK) [compound 210] | 20 | 37 | 53 | 63 |  |  |  |  |  |  |  |
| DWFKAFYDKVAEKFKEAF [peptide 243, reference compound] | 10 | 50 |  | 64 |  |  |  |  |  |  |  |
| PVLDFFRELLNEXLEALKQKLK (PVLDFFRELLNE[Aib]LEALKQKLK) [peptide 25] | 46 |  | 93 | 82 |  |  |  |  |  |  |  |
| 54 (PVLDLFRELLNEWLEALKQKLK) [compound 54] | 76 | 84 | 78 | 71 |  |  |  |  |  |  |  |
| 209 (PVLDLFRELLNELLQKLK) [compound 209] | 54 | 67 | 62 | 71 |  |  |  |  |  |  |  |
| 45 (PVLDEFREKLNE[Aib]LEALKQKLK) [compound 45] |  |  | 86 | 84 |  |  |  |  |  |  |  |
| 62 (PVLDEWREKLNE[Aib]LEALKQKLK) [compound 62] | 15 | 43 |  | 85 |  |  |  |  |  |  |  |
| PVLDLFRELLNEGLEALKQKLK [peptide 8] | 20 | 61 | 93 | 90 |  |  |  |  | 93 | 61-93% | 20 |
| 49 (PVLDLFRNLLEKLLEALEQKLK) [compound 49] | 57 | 52 | 57 | 65 |  |  |  |  |  |  |  |
| 113 (PVLDEFREKLNEPLEALKQKLK) [compound 113] | 6 |  |  | 22 |  |  |  |  |  |  |  |
| PVLDLFKELLNELLEALKQKLK [peptide 7] | 77 | 85 | 73 | 89 |  |  |  |  |  |  |  |
| 108 (PVLDLFRWLLNE[Aib]LEALKQKLK) [compound 108] | 28 |  | 54 | 55 |  |  |  |  |  |  |  |
| 197 (Ac-PLLDLFRELLEELKQKLK-NH2) [compound 197] | 43 |  | 69 | 70 |  |  |  |  |  |  |  |
| PVLDLFRELLNELWEALKQKLK [peptide 28] | 82 | 90 | 81 | 98 |  |  |  |  |  |  |  |
| 85 (PLDLFRELLNELLEALKQKLK) [compound 85] | 58 | 64 | 69 | 61 |  |  |  |  |  |  |  |
| 31 (PVLDLFLELLNE[Aib]LEALKQKLK) [compound 31] | 49 |  | 90 | 98 |  |  |  |  |  |  |  |
| 164 (PVLELFENLLERLLDAWQKKLK) [compound 164] | 37 | 51 | 61 | 66 |  |  |  |  |  |  |  |
| LDDLLQKWAEAFNQLLKK [peptide 237, reference compound] | 30 | 45 |  | 66 |  |  |  |  |  |  |  |
